Experimental data taken from article PMC4611135.

What was measured:
[1] = target: DndE-His (Salmonella enterica serovar Cerro 87); assay: pull-down; co-expression of dndDE with His tag on DndE (pDndDEH) in E. coli BL21 (DE3); nickel purification, 15% SDS-PAGE
[2] = target: DndCDE complex (Salmonella enterica serovar Cerro 87); assay: SEC; DndCDE complex saturated with IscS, purified on Superdex 200; molar ratio by densitometry of the Coomassie-stained SDS-PAGE bands

Substance | stoichiometry N [1] | stoichiometry N [2]
DndD (natural protein) | 1 molar ratio | –
Strep-IscS (from UniProt P0A6B7 1-404) (natural protein) | – | 1 molar ratio
